Measured values taken from PMC8716136.

Target: CaMKIIδC-GFP T287A (phosphoresistant) (R. norvegicus)
Experiment: FRET or BRET

- donor fluorescence (FDD) after 5 uM unlabeled CaM, % of initial intensity: 80%
Substance: unlabeled CaM (calmodulin) (from UniProt P0DP23 1-149) (natural protein)
